The results in this text go back to patent publication US20020065398A1 (CENTRO DE INMUNOLOGIA MOLECULAR, published 2002).

The target of assay [1] is T1, human epidermal growth factor receptor (human, UniProt P00533 25-1210).
T1 construct: whole, on cells; also called EGF-R; EGF receptor
As to the kind of experiment: RRA, 125I-EGF competition on human placenta microsomal fraction.

Assay [2] has as its target T1, human epidermal growth factor receptor. Put plainly: RRA, concentrated supernatants of transfected NSO cells.

B1: first version of humanized R3 antibody (R3-huVH(a) with R3-huVK) (antibody, human IgG1, V domains shown)
VH: QVQLQQSGAEVKKPGSSVKVSCKASGYTFTNYYIYWVRQAPGQGLEWIGGINPTSGGSNFNEKFKTRVTITVDESTNTAYMELSSLRSEDTAFYFCARQGLWFDSDGRGFDFWGQGSTVTVSS
VL: DIQMTQSPSSLSASVGDRVTITCRSSQNIVHSNGNTYLDWYQQTPGKAPKLLIYKVSNRFSGVPSRFSGSGSGTDFTFTISSLQPEDIATYYCFQYSHVPWTFGQGTKLQITR
notes: R3 CDRs grafted on human Eu (VH) and REI (VK) frameworks; human IgG1 / kappa constant regions; also called humanized (1) R3; version 1
For the molecule B1, in assay [1], the binding result is “no binding”.

B2: reshaped R3VH-K66A67 with huVKR3 (antibody, V domains shown)
VH: QVQLQQSGAEVKKPGSSVKVSCKASGYTFTNYYIYWVRQAPGQGLEWIGGINPTSGGSNFNEKFKTKATITVDESTNTAYMELSSLRSEDTAFYFCARQGLWFDSDGRGFDFWGQGSTVTVSS
VL: DIQMTQSPSSLSASVGDRVTITCRSSQNIVHSNGNTYLDWYQQTPGKAPKLLIYKVSNRFSGVPSRFSGSGSGTDFTFTISSLQPEDIATYYCFQYSHVPWTFGQGTKLQIT
notes: Human IgG1 / kappa; also called 66 and 67 changes
Take B2: the binding result in assay [1] was “no binding”.

B3: hybrid humanized R3VH/murine R3VK (antibody, V domains shown)
VH: QVQLQQSGAEVKKPGSSVKVSCKASGYTFTNYYIYWVRQAPGQGLEWIGGINPTSGGSNFNEKFKTRVTITVDESTNTAYMELSSLRSEDTAFYFCARQGLWFDSDGRGFDFWGQGSTVTVSS
VL: DVLMTQIPLSLPVSLGDGASISCRSSQNIVHSNGNTYLDWYLQKPGQSPNLLIYKVSNRFSGVPDRFRGSGSGTDFTLKISRVEAEDLGVYYCFQYSHVPWTFGGGTKLEIK
notes: Human gamma-1 and kappa constant regions; tested as concentrated supernatant of transfected NSO cells; The hybrid was made before the further VH versions, so its humanized VH is read as the first version
For the molecule B3, the binding result in assay [2] is given as “no binding”.
